Measurements reported in the supplement of paper PMC9112550, “Optimization of the antimicrobial peptide Bac7 by deep mutational scanning” (BMC Biology, 2022).
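Note: peptides expressed intracellularly from a pBAD plasmid library in pooled LB shake-flask culture, induced with 0.3% L-arabinose, DNA abundance read by NGS, three biological replicates, DESeq2 with apeglm shrinkage.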

These sequences were tested on Escherichia coli TOP10 (assay: shrunken log2 fold change of peptide-encoding DNA abundance (4.5 h post-induction vs induction); higher = less antimicrobial activity (less host growth inhibition)). Details: time post-induction: 4.5 h; library: site-saturation at positions 5, 18, 19, 20.
With RRIRSRPPRLPRPRPRPELPPRP the “shrunken log2 fold change” value was 0.0311. For RRIRSRPPRLPRPRPRPEMEPRP, the “shrunken log2 fold change” value was 0.00902. For RRIRSRPPRLPRPRPRPEMGPRP, the “shrunken log2 fold change” value was 0.128. In the case of RRIRSRPPRLPRPRPRPEMMPRP, the “shrunken log2 fold change” value is reported as 0.681. RRIRSRPPRLPRPRPRPENDPRP was tested, and the “shrunken log2 fold change” value was -0.0386. With RRIRSRPPRLPRPRPRPENSPRP the “shrunken log2 fold change” value was -0.0239. In the case of RRIRSRPPRLPRPRPRPEPHPRP, the “shrunken log2 fold change” value is reported as 0.0658. With RRIRSRPPRLPRPRPRPERIPRP the “shrunken log2 fold change” value was -0.065. In the case of RRIRSRPPRLPRPRPRPERMPRP, the “shrunken log2 fold change” value is reported as 0.263. RRIRSRPPRLPRPRPRPERTPRP was tested, and the “shrunken log2 fold change” value was 0.0493. In the case of RRIRSRPPRLPRPRPRPESEPRP, the “shrunken log2 fold change” value is reported as 0.0793. In the case of RRIRSRPPRLPRPRPRPESQPRP, the “shrunken log2 fold change” value is reported as 0.0194. In the case of RRIRSRPPRLPRPRPRPESSPRP, the “shrunken log2 fold change” value is reported as 0.00287. In the case of RRIRSRPPRLPRPRPRPETYPRP, the “shrunken log2 fold change” value is reported as -0.293. With RRIRSRPPRLPRPRPRPEVRPRP the “shrunken log2 fold change” value was -0.109. In the case of RRIRSRPPRLPRPRPRPEVTPRP, the “shrunken log2 fold change” value is reported as 0.501. In the case of RRIRSRPPRLPRPRPRPEWDPRP, the “shrunken log2 fold change” value is reported as 0.365. With RRIRSRPPRLPRPRPRPEWHPRP the “shrunken log2 fold change” value was 0.0472. For RRIRSRPPRLPRPRPRPEWPPRP, the “shrunken log2 fold change” value was 0.112. In the case of RRIRSRPPRLPRPRPRPFAFPRP, the “shrunken log2 fold change” value is reported as -0.0807. With RRIRSRPPRLPRPRPRPFAIPRP the “shrunken log2 fold change” value was -0.638. RRIRSRPPRLPRPRPRPFALPRP was tested, and the “shrunken log2 fold change” value was -0.0971. In the case of RRIRSRPPRLPRPRPRPFAVPRP, the “shrunken log2 fold change” value is reported as -0.113. RRIRSRPPRLPRPRPRPFCAPRP was tested, and the “shrunken log2 fold change” value was 0.0376. For RRIRSRPPRLPRPRPRPFCMPRP, the “shrunken log2 fold change” value was -0.324. In the case of RRIRSRPPRLPRPRPRPFDCPRP, the “shrunken log2 fold change” value is reported as -0.277. With RRIRSRPPRLPRPRPRPFDLPRP the “shrunken log2 fold change” value was -0.419. RRIRSRPPRLPRPRPRPFDRPRP was tested, and the “shrunken log2 fold change” value was -0.118. For RRIRSRPPRLPRPRPRPFEWPRP, the “shrunken log2 fold change” value was 0.0589. With RRIRSRPPRLPRPRPRPFFFPRP the “shrunken log2 fold change” value was 0.168. In the case of RRIRSRPPRLPRPRPRPFFIPRP, the “shrunken log2 fold change” value is reported as -0.547. For RRIRSRPPRLPRPRPRPFFNPRP, the “shrunken log2 fold change” value was 0.00333. In the case of RRIRSRPPRLPRPRPRPFFPPRP, the “shrunken log2 fold change” value is reported as -0.196. With RRIRSRPPRLPRPRPRPFGRPRP the “shrunken log2 fold change” value was -0.0701. RRIRSRPPRLPRPRPRPFILPRP was tested, and the “shrunken log2 fold change” value was -0.695. In the case of RRIRSRPPRLPRPRPRPFKDPRP, the “shrunken log2 fold change” value is reported as -0.11. With RRIRSRPPRLPRPRPRPFKEPRP the “shrunken log2 fold change” value was -0.117. With RRIRSRPPRLPRPRPRPFMWPRP the “shrunken log2 fold change” value was -0.165. In the case of RRIRSRPPRLPRPRPRPFNNPRP, the “shrunken log2 fold change” value is reported as -0.458. RRIRSRPPRLPRPRPRPFNTPRP was tested, and the “shrunken log2 fold change” value was -0.257. For RRIRSRPPRLPRPRPRPFNVPRP, the “shrunken log2 fold change” value was -0.343. RRIRSRPPRLPRPRPRPFQSPRP was tested, and the “shrunken log2 fold change” value was -0.167. RRIRSRPPRLPRPRPRPFQWPRP was tested, and the “shrunken log2 fold change” value was 0.319. With RRIRSRPPRLPRPRPRPFRCPRP the “shrunken log2 fold change” value was -0.148. RRIRSRPPRLPRPRPRPFSKPRP was tested, and the “shrunken log2 fold change” value was -0.0877. RRIRSRPPRLPRPRPRPFSLPRP was tested, and the “shrunken log2 fold change” value was -0.506. With RRIRSRPPRLPRPRPRPFTAPRP the “shrunken log2 fold change” value was -0.492. In the case of RRIRSRPPRLPRPRPRPFVAPRP, the “shrunken log2 fold change” value is reported as -0.0664. RRIRSRPPRLPRPRPRPFYLPRP was tested, and the “shrunken log2 fold change” value was -0.818. With RRIRSRPPRLPRPRPRPFYRPRP the “shrunken log2 fold change” value was -0.271. RRIRSRPPRLPRPRPRPGAHPRP was tested, and the “shrunken log2 fold change” value was 0.0286. For RRIRSRPPRLPRPRPRPGANPRP, the “shrunken log2 fold change” value was 0.0967. In the case of RRIRSRPPRLPRPRPRPGASPRP, the “shrunken log2 fold change” value is reported as 0.418. For RRIRSRPPRLPRPRPRPGCVPRP, the “shrunken log2 fold change” value was 0.247. RRIRSRPPRLPRPRPRPGCWPRP was tested, and the “shrunken log2 fold change” value was 0.593. With RRIRSRPPRLPRPRPRPGELPRP the “shrunken log2 fold change” value was 0.0807. In the case of RRIRSRPPRLPRPRPRPGKTPRP, the “shrunken log2 fold change” value is reported as -0.112. With RRIRSRPPRLPRPRPRPGLGPRP the “shrunken log2 fold change” value was 0.485. RRIRSRPPRLPRPRPRPGPGPRP was tested, and the “shrunken log2 fold change” value was 0.599. For RRIRSRPPRLPRPRPRPGRGPRP, the “shrunken log2 fold change” value was 0.715. In the case of RRIRSRPPRLPRPRPRPGSHPRP, the “shrunken log2 fold change” value is reported as -0.104. RRIRSRPPRLPRPRPRPGVKPRP was tested, and the “shrunken log2 fold change” value was 0.235. RRIRSRPPRLPRPRPRPGVSPRP was tested, and the “shrunken log2 fold change” value was 0.119. With RRIRSRPPRLPRPRPRPGWEPRP the “shrunken log2 fold change” value was -0.0365. In the case of RRIRSRPPRLPRPRPRPGWLPRP, the “shrunken log2 fold change” value is reported as 0.177. With RRIRSRPPRLPRPRPRPGYQPRP the “shrunken log2 fold change” value was -0.147. RRIRSRPPRLPRPRPRPHAHPRP was tested, and the “shrunken log2 fold change” value was -0.32. RRIRSRPPRLPRPRPRPHAVPRP was tested, and the “shrunken log2 fold change” value was 0.0594. With RRIRSRPPRLPRPRPRPHCWPRP the “shrunken log2 fold change” value was -0.0424. RRIRSRPPRLPRPRPRPHDGPRP was tested, and the “shrunken log2 fold change” value was -0.01. For RRIRSRPPRLPRPRPRPHDLPRP, the “shrunken log2 fold change” value was 0.0653. For RRIRSRPPRLPRPRPRPHDMPRP, the “shrunken log2 fold change” value was -0.335. With RRIRSRPPRLPRPRPRPHDNPRP the “shrunken log2 fold change” value was -0.308. With RRIRSRPPRLPRPRPRPHFSPRP the “shrunken log2 fold change” value was -0.112. For RRIRSRPPRLPRPRPRPHFVPRP, the “shrunken log2 fold change” value was -0.0872. With RRIRSRPPRLPRPRPRPHGAPRP the “shrunken log2 fold change” value was 0.104. For RRIRSRPPRLPRPRPRPHGIPRP, the “shrunken log2 fold change” value was -0.273. With RRIRSRPPRLPRPRPRPHHMPRP the “shrunken log2 fold change” value was -1.11. With RRIRSRPPRLPRPRPRPHIQPRP the “shrunken log2 fold change” value was -0.699. For RRIRSRPPRLPRPRPRPHKIPRP, the “shrunken log2 fold change” value was -0.48. RRIRSRPPRLPRPRPRPHKKPRP was tested, and the “shrunken log2 fold change” value was -0.0645. RRIRSRPPRLPRPRPRPHLHPRP was tested, and the “shrunken log2 fold change” value was -0.177. With RRIRSRPPRLPRPRPRPHLIPRP the “shrunken log2 fold change” value was -0.303. With RRIRSRPPRLPRPRPRPHMSPRP the “shrunken log2 fold change” value was -0.223. RRIRSRPPRLPRPRPRPHNDPRP was tested, and the “shrunken log2 fold change” value was -0.309. With RRIRSRPPRLPRPRPRPHNEPRP the “shrunken log2 fold change” value was -0.382. With RRIRSRPPRLPRPRPRPHNTPRP the “shrunken log2 fold change” value was -0.337. For RRIRSRPPRLPRPRPRPHRMPRP, the “shrunken log2 fold change” value was -0.697. In the case of RRIRSRPPRLPRPRPRPHSHPRP, the “shrunken log2 fold change” value is reported as -0.282. In the case of RRIRSRPPRLPRPRPRPHSTPRP, the “shrunken log2 fold change” value is reported as -0.312. For RRIRSRPPRLPRPRPRPHSWPRP, the “shrunken log2 fold change” value was 0.122. In the case of RRIRSRPPRLPRPRPRPHTAPRP, the “shrunken log2 fold change” value is reported as -0.175. RRIRSRPPRLPRPRPRPHTCPRP was tested, and the “shrunken log2 fold change” value was -0.215. In the case of RRIRSRPPRLPRPRPRPHTTPRP, the “shrunken log2 fold change” value is reported as -0.0736. With RRIRSRPPRLPRPRPRPHTYPRP the “shrunken log2 fold change” value was -0.265. RRIRSRPPRLPRPRPRPHVKPRP was tested, and the “shrunken log2 fold change” value was -0.00963. For RRIRSRPPRLPRPRPRPHVMPRP, the “shrunken log2 fold change” value was -0.103. RRIRSRPPRLPRPRPRPHVQPRP was tested, and the “shrunken log2 fold change” value was 0.132. RRIRSRPPRLPRPRPRPHWCPRP was tested, and the “shrunken log2 fold change” value was -0.125. RRIRSRPPRLPRPRPRPHWDPRP was tested, and the “shrunken log2 fold change” value was 0.00395. With RRIRSRPPRLPRPRPRPHYFPRP the “shrunken log2 fold change” value was -0.51. For RRIRSRPPRLPRPRPRPHYMPRP, the “shrunken log2 fold change” value was -0.273. In the case of RRIRSRPPRLPRPRPRPHYRPRP, the “shrunken log2 fold change” value is reported as 0.0349. With RRIRSRPPRLPRPRPRPHYSPRP the “shrunken log2 fold change” value was -0.596. With RRIRSRPPRLPRPRPRPICPPRP the “shrunken log2 fold change” value was -0.055. For RRIRSRPPRLPRPRPRPIEIPRP, the “shrunken log2 fold change” value was -0.00473. RRIRSRPPRLPRPRPRPIFDPRP was tested, and the “shrunken log2 fold change” value was -0.0516. In the case of RRIRSRPPRLPRPRPRPIHAPRP, the “shrunken log2 fold change” value is reported as -0.0213. In the case of RRIRSRPPRLPRPRPRPIIDPRP, the “shrunken log2 fold change” value is reported as -0.178.
